{"source": "paper PMC9467508", "about": "“DNA passes through cohesin’s hinge as well as its Smc3–kleisin interface” (eLife, 2022)", "experiment_in_all_cases": "cross-linking; BMOE (0.64 mM) cross-linking of engineered cysteine pairs; 0.7 uM cohesin (Smc1, Smc3, and Scc1) and Scc2 in 25 mM HEPES pH 7.5, 50 mM NaCl, 1 mM MgCl2, 1 mM TCEP, 5% glycerol; 24°C, 5 min; with or without 10 mM ATP and 60 nM supercoiled pUC19; SDS-PAGE", "details_in_all_cases": "both partners purified", "key": {"[1]": {"target": "T1, cohesin (Smc1-His E1102C, Smc3, Scc1-StrepII) (S. cerevisiae, UniProt P32908 1-1225; P47037 1-1230; Q12158 1-566, E1102C)", "T1 construct": "Smc1, cohesin subunit, S. cerevisiae; Smc3, cohesin subunit, S. cerevisiae; Scc1 (kleisin subunit of cohesin), S. cerevisiae; Tied to the cross-linking experiment by its substitution; also called Smc1E1102C; cohesin (Smc1, Smc3, and Scc1); source: prepared as described in Collier et al., 2020 (pACEbac1i plasmid); purified; copies: + +", "T1 sequence (P32908 whole entry E1102C, chain 1 of 3)": "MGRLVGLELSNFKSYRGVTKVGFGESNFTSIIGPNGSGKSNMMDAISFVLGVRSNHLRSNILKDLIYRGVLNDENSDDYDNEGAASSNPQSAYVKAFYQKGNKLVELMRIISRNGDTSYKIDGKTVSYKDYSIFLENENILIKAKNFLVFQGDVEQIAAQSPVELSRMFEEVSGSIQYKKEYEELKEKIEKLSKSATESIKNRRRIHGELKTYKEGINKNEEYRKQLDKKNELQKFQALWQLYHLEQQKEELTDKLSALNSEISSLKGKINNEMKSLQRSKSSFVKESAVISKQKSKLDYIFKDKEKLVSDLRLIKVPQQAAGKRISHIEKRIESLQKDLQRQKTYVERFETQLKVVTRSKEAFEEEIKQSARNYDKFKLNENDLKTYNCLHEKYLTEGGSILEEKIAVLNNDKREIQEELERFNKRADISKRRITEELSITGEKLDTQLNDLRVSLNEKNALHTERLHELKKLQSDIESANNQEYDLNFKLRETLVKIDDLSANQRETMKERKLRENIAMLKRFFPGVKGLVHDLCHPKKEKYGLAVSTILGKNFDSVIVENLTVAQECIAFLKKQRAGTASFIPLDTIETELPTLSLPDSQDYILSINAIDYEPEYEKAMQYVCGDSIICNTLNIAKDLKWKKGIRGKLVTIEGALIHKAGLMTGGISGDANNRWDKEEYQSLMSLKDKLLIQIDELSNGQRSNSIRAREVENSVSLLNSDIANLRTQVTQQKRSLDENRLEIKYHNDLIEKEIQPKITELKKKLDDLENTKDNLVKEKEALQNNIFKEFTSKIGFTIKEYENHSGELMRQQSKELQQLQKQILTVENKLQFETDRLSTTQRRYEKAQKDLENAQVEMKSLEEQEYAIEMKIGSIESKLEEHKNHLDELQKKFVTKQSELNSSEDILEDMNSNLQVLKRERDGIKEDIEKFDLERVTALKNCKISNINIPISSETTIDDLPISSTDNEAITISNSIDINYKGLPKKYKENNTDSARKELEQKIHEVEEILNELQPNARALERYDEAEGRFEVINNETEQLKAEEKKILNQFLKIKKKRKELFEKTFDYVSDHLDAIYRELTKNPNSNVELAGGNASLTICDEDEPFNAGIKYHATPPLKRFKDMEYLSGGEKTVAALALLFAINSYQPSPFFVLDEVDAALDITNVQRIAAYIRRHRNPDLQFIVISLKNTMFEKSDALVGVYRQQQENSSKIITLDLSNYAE", "T1 sequence (P47037 whole entry, chain 2 of 3)": "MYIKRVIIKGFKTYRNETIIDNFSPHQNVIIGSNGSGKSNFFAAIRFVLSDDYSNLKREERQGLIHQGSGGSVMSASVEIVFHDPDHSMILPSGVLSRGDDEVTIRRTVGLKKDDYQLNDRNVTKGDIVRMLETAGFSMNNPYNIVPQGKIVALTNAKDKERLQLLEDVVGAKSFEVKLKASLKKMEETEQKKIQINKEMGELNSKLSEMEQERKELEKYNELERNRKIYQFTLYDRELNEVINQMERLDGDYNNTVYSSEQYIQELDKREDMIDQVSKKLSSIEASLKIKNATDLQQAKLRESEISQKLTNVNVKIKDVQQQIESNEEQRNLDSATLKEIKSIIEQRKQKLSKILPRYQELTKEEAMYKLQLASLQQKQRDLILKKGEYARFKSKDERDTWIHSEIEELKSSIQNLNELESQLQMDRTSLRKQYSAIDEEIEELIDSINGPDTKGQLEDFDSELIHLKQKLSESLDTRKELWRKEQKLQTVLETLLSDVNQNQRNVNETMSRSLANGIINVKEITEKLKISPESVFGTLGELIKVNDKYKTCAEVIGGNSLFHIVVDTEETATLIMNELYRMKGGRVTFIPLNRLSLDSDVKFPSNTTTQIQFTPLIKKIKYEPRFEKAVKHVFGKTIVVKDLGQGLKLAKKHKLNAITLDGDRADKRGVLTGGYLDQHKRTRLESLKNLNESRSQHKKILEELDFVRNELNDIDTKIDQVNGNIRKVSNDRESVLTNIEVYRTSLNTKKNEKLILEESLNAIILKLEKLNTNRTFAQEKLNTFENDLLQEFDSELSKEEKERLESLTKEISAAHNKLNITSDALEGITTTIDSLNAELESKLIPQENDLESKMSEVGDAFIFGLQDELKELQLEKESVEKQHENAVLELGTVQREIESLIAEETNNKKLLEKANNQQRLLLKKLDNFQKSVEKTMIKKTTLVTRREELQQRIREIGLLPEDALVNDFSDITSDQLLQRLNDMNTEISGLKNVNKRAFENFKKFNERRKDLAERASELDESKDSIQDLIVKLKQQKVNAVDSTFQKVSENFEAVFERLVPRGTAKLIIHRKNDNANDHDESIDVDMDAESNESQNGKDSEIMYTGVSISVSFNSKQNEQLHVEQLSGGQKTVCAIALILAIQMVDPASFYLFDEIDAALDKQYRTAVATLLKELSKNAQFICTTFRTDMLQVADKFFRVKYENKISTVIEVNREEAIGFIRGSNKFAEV", "T1 sequence (Q12158 whole entry, chain 3 of 3)": "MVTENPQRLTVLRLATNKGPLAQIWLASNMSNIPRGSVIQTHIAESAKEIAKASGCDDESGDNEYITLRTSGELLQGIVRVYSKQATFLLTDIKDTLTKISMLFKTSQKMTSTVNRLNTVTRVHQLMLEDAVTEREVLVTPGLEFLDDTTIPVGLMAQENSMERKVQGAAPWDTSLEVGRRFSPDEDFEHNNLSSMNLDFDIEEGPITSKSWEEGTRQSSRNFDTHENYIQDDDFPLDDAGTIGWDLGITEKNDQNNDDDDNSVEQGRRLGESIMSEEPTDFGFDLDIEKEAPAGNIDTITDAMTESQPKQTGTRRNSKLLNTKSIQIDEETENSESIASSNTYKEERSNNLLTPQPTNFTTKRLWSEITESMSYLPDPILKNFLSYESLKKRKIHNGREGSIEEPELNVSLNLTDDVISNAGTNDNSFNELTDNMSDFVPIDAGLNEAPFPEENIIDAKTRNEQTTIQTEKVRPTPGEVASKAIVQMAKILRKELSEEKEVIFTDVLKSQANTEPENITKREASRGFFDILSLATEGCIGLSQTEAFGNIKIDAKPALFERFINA"}, "[2]": {"target": "T2, cohesin (Smc3 K1004C, Smc1, Scc1-StrepII) (S. cerevisiae, UniProt P32908 1-1225; P47037 1-1230; Q12158 1-566, K1004C)", "T2 construct": "Smc1, cohesin subunit, S. cerevisiae; Smc3, cohesin subunit, S. cerevisiae; Scc1 (kleisin subunit of cohesin), S. cerevisiae; Tied to the cross-linking experiment by its substitution; also called cohesin (Smc1, Smc3, and Scc1); source: prepared as described in Collier et al., 2020 (pACEbac1i plasmid); purified; copies: + +", "T2 sequence (P32908 whole entry, stated change not applied, chain 1 of 3)": "as the sequence (P32908 whole entry E1102C, chain 1 of 3) above, with C1102E counted along it", "T2 sequence (P47037 whole entry K1004C, chain 2 of 3)": "as the sequence (P47037 whole entry, chain 2 of 3) above, with K1004C counted along it", "T2 sequence (Q12158 whole entry, chain 3 of 3)": "as the sequence (Q12158 whole entry, chain 3 of 3) above"}, "[3]": {"target": "T3, cohesin (Smc1, Smc3 S72C, Scc1-StrepII) (S. cerevisiae, UniProt P32908 1-1225; P47037 1-1230; Q12158 1-566, S72C)", "T3 construct": "Smc1, cohesin subunit, S. cerevisiae; Smc3, cohesin subunit, S. cerevisiae; Scc1 (kleisin subunit of cohesin), S. cerevisiae; Tied to the cross-linking experiment by its substitution; also called cohesin (Smc1, Smc3, and Scc1); source: prepared as described in Collier et al., 2020 (pACEbac1i plasmid); purified; copies: + +", "T3 sequence (P32908 whole entry, chain 1 of 3)": "as the sequence (P32908 whole entry E1102C, chain 1 of 3) above, with C1102E counted along it", "T3 sequence (P47037 whole entry S72C, chain 2 of 3)": "as the sequence (P47037 whole entry, chain 2 of 3) above, with S72C counted along it", "T3 sequence (Q12158 whole entry, chain 3 of 3)": "as the sequence (Q12158 whole entry, chain 3 of 3) above"}}}
{"binder": "Scc2 133-1493-StrepII T1281C (domain or fragment, S. cerevisiae, UniProt Q04002 133-1493, looked up, Scc2, cohesin loader subunit, S. cerevisiae, residues 133-1493; pACEbac1 is a baculovirus transfer vector, so insect cells are surmised; also called Scc2T1281C; source: prepared as described in Collier et al., 2020 (pACEbac1 plasmid); purified) KSEIVSRPEAKHKLESVTSNAGNLSFNDNSSNKKTKTSTGVTMTQANLAEQYLNDLKNILDIVGFDQNSAEIGNIEYWLQLPNKKFVLTTNCLTKLQMTIKNITDNPQLSNSIEITWLLRLLDVMVCNIKFSKSSLKMGLDDSMLRYIALLSTIVLFNIFLLGKNDSNLHRESYIMEPVNFLSDLIESLKILTIEYGSLKIEFDTFQEALELLPKYIRNGPFLDDNVTAKLVYIFSDLLMNNDIEATTNIQFQSFWDNVKRISSDILVSLFGSFDQQRGFIIEELLSHIEKLPTKRIQKKLRKVGNQNIYITDFTFTLMSMLENINCYSFCNQMKDIAPENIDLLKNEYKKQEEFLFNIVEHINDTILERFFKNPSALRYVIDNFVQDLLLLISSPQWPVTEKILSSLLKRLLSVYSPSMQVSANIETICLQLIGNIGSTIFDIKCSTRDHEDNNLIKMINYPETLPHFFKSFEECIAYNETIKCRRSATRFLWNLRLGTILILEEYTKDAKEQIITVDNELKKILEQIKDGGLGPELENREADFSTIKLDYFSILHAFELLNLYDPYLKLILSLLAKDKIKLRSTAIKCLSMLASKDKVILSNPMVKETIHRRLNDSSASVKDAILDLVSINSSYFEFYQQINNNYNDDSIMVRKHVLRINEKMYDETNDIVTKVYVIARILMKIEDEEDNIIDMARLILLNRWILKVHEVLDQPEKLKEISSSVLLVMSRVAIMNEKCSQLFDLFLNFYLLNKEAHSKEAYDKITHVLTILTDFLVQKIVELNSDDTNEKNSIVDKQNFLNLLAKFADSTVSFLTKDHITALYPYMVSDEKSDFHYYILQVFRCTFEKLANFKQKFLYDLETTLLSRLPKMNVREIDEAMPLIWSVATHRHDTARVAKACSSCLSHLHPYINKANNEEAAIVVDGKLQRLIYLSTGFARFCFPKPSNDKIAFLQEGETLYEHITKCLLVLSKDKITHVIRRVAVKNLTKLCGNHPKLFNSRHVLHLLDKEFQSDQLDIKLVILESLYDLFLLEERKSVRNTGVNSTLSSNSILKKKLLKTNRVEFANDGVCSALATRFLDNILQLCLLRDLKNSLVAIRLLKLILKFGYTNPSHSIPTVIALFASTSQYIRHVAYELLEDLFEKYECLVFSSLSRGVTKAIHYSIHTDEKYYYKHDHFLSLLEKLCGTGKKNGPKFFKVLKRIMQSYLDDITDLTSTNSSVQKSIFVLCTNISNITFVSQYDLVSLLKTIDLTTDRLKEVIMDEIGDNVSSLSVSEEKLSGIILIQLSLQDLGTYLLHLYGLRDDVLLLDIVEESELKNKQLPAKKPDISKFSAQLENIEQYSSNGKLLTYFRKHVKDT", "values": [{"measurement": "binding result", "setting": "[1]", "result": "binds"}]}
{"binder": "Scc2 133-1493-StrepII D369C (domain or fragment, S. cerevisiae, UniProt Q04002 133-1493, looked up, Scc2, cohesin loader subunit, S. cerevisiae, residues 133-1493; also called Scc2D369C; source: prepared as described in Collier et al., 2020 (pACEbac1 plasmid); purified) KSEIVSRPEAKHKLESVTSNAGNLSFNDNSSNKKTKTSTGVTMTQANLAEQYLNDLKNILDIVGFDQNSAEIGNIEYWLQLPNKKFVLTTNCLTKLQMTIKNITDNPQLSNSIEITWLLRLLDVMVCNIKFSKSSLKMGLDDSMLRYIALLSTIVLFNIFLLGKNDSNLHRESYIMEPVNFLSDLIESLKILTIEYGSLKIEFDTFQEALELLPKYIRNGPFLDDNVTAKLVYIFSCLLMNNDIEATTNIQFQSFWDNVKRISSDILVSLFGSFDQQRGFIIEELLSHIEKLPTKRIQKKLRKVGNQNIYITDFTFTLMSMLENINCYSFCNQMKDIAPENIDLLKNEYKKQEEFLFNIVEHINDTILERFFKNPSALRYVIDNFVQDLLLLISSPQWPVTEKILSSLLKRLLSVYSPSMQVSANIETICLQLIGNIGSTIFDIKCSTRDHEDNNLIKMINYPETLPHFFKSFEECIAYNETIKCRRSATRFLWNLRLGTILILEEYTKDAKEQIITVDNELKKILEQIKDGGLGPELENREADFSTIKLDYFSILHAFELLNLYDPYLKLILSLLAKDKIKLRSTAIKCLSMLASKDKVILSNPMVKETIHRRLNDSSASVKDAILDLVSINSSYFEFYQQINNNYNDDSIMVRKHVLRINEKMYDETNDIVTKVYVIARILMKIEDEEDNIIDMARLILLNRWILKVHEVLDQPEKLKEISSSVLLVMSRVAIMNEKCSQLFDLFLNFYLLNKEAHSKEAYDKITHVLTILTDFLVQKIVELNSDDTNEKNSIVDKQNFLNLLAKFADSTVSFLTKDHITALYPYMVSDEKSDFHYYILQVFRCTFEKLANFKQKFLYDLETTLLSRLPKMNVREIDEAMPLIWSVATHRHDTARVAKACSSCLSHLHPYINKANNEEAAIVVDGKLQRLIYLSTGFARFCFPKPSNDKIAFLQEGETLYEHITKCLLVLSKDKITHVIRRVAVKNLTKLCGNHPKLFNSRHVLHLLDKEFQSDQLDIKLVILESLYDLFLLEERKSVRNTGVNSTLSSNSILKKKLLKTNRVEFANDGVCSALATRFLDNILQLCLLRDLKNSLVAIRLLKLILKFGYTNPSHSIPTVIALFASTSQYIRHVAYELLEDLFEKYETLVFSSLSRGVTKAIHYSIHTDEKYYYKHDHFLSLLEKLCGTGKKNGPKFFKVLKRIMQSYLDDITDLTSTNSSVQKSIFVLCTNISNITFVSQYDLVSLLKTIDLTTDRLKEVIMDEIGDNVSSLSVSEEKLSGIILIQLSLQDLGTYLLHLYGLRDDVLLLDIVEESELKNKQLPAKKPDISKFSAQLENIEQYSSNGKLLTYFRKHVKDT", "values": [{"measurement": "binding result", "setting": "[2]", "result": "binds"}]}
{"binder": "Scc2 133-1493-StrepII E819C (domain or fragment, S. cerevisiae, UniProt Q04002 133-1493, looked up, Scc2, cohesin loader subunit, S. cerevisiae, residues 133-1493; also called Scc2E819C; source: prepared as described in Collier et al., 2020 (pACEbac1 plasmid); purified) KSEIVSRPEAKHKLESVTSNAGNLSFNDNSSNKKTKTSTGVTMTQANLAEQYLNDLKNILDIVGFDQNSAEIGNIEYWLQLPNKKFVLTTNCLTKLQMTIKNITDNPQLSNSIEITWLLRLLDVMVCNIKFSKSSLKMGLDDSMLRYIALLSTIVLFNIFLLGKNDSNLHRESYIMEPVNFLSDLIESLKILTIEYGSLKIEFDTFQEALELLPKYIRNGPFLDDNVTAKLVYIFSDLLMNNDIEATTNIQFQSFWDNVKRISSDILVSLFGSFDQQRGFIIEELLSHIEKLPTKRIQKKLRKVGNQNIYITDFTFTLMSMLENINCYSFCNQMKDIAPENIDLLKNEYKKQEEFLFNIVEHINDTILERFFKNPSALRYVIDNFVQDLLLLISSPQWPVTEKILSSLLKRLLSVYSPSMQVSANIETICLQLIGNIGSTIFDIKCSTRDHEDNNLIKMINYPETLPHFFKSFEECIAYNETIKCRRSATRFLWNLRLGTILILEEYTKDAKEQIITVDNELKKILEQIKDGGLGPELENREADFSTIKLDYFSILHAFELLNLYDPYLKLILSLLAKDKIKLRSTAIKCLSMLASKDKVILSNPMVKETIHRRLNDSSASVKDAILDLVSINSSYFEFYQQINNNYNDDSIMVRKHVLRINEKMYDETNDIVTKVYVIARILMKICDEEDNIIDMARLILLNRWILKVHEVLDQPEKLKEISSSVLLVMSRVAIMNEKCSQLFDLFLNFYLLNKEAHSKEAYDKITHVLTILTDFLVQKIVELNSDDTNEKNSIVDKQNFLNLLAKFADSTVSFLTKDHITALYPYMVSDEKSDFHYYILQVFRCTFEKLANFKQKFLYDLETTLLSRLPKMNVREIDEAMPLIWSVATHRHDTARVAKACSSCLSHLHPYINKANNEEAAIVVDGKLQRLIYLSTGFARFCFPKPSNDKIAFLQEGETLYEHITKCLLVLSKDKITHVIRRVAVKNLTKLCGNHPKLFNSRHVLHLLDKEFQSDQLDIKLVILESLYDLFLLEERKSVRNTGVNSTLSSNSILKKKLLKTNRVEFANDGVCSALATRFLDNILQLCLLRDLKNSLVAIRLLKLILKFGYTNPSHSIPTVIALFASTSQYIRHVAYELLEDLFEKYETLVFSSLSRGVTKAIHYSIHTDEKYYYKHDHFLSLLEKLCGTGKKNGPKFFKVLKRIMQSYLDDITDLTSTNSSVQKSIFVLCTNISNITFVSQYDLVSLLKTIDLTTDRLKEVIMDEIGDNVSSLSVSEEKLSGIILIQLSLQDLGTYLLHLYGLRDDVLLLDIVEESELKNKQLPAKKPDISKFSAQLENIEQYSSNGKLLTYFRKHVKDT", "values": [{"measurement": "binding result", "setting": "[3]", "result": "binds"}]}
